Test results published in article PMC12784346, “Paratope mapping of tilvestamab, an anti-AXL function-blocking antibody, using high-throughput bacterial expression of secreted scFv-osmY fusion proteins” (Bioscience Reports, 2025).
Substitutions are numbered along the chain they refer to.

B1: parental tilvestamab scFv-osmY fusion protein (scFv, V domains shown)
VH: EVQLVESGGGLVQPGGSLRLSCAASGYSFTDFYINWVRQAPGKGLEWVARIFPGGDNTYYNEKFKGRFTLSADTSKSTAYLQMNSLRAEDTAVYYCARRGLYYAMDYWGQGTLVTVSS
VL: DIQMTQSPSSLSASVGDRVTITCRSSQSLVHSNGIPYLHWYQQKPGKAPKLLIYRVSNRFSGVPSRFSGSGSGTDFTLTISSLQPEDFATYYCSQGTHVPPTFGQGTKVEIK
notes: VH of tilvestamab (BGB149); numbers count on: the scFv-osmY fusion protein; linker between VH and VL, adapted from the vector pOPE101; VL of tilvestamab (BGB149); About 52 kDa; vector pET-22b(+); also called parental scFv-osmY; parental scFv; source: E. coli T7 expression strain, secreted, culture supernatant used directly; not shown: His6, C-terminal, kept
B2: tilvestamab scFv-osmY L102Y (scFv, V domains shown)
VH: B1 VH with L101Y
VL: B1 VL
notes: VH of tilvestamab, as the VH of m1; numbers count on: the scFv-osmY fusion protein; linker; VL of tilvestamab, as the VL of m1; source: E. coli T7 expression strain, secreted, culture supernatant used directly; not shown: His6, C-terminal, kept
B3: tilvestamab scFv-osmY Y191A (scFv, V domains shown)
VH: B1 VH
VL: B1 VL with Y54A
notes: VH of tilvestamab, as the VH of m1; linker; VL of tilvestamab, as the VL of m1; numbers count on: the scFv-osmY fusion protein; source: E. coli T7 expression strain, secreted, culture supernatant used directly; not shown: His6, C-terminal, kept
B4: tilvestamab scFv-osmY L102S (scFv, V domains shown)
VH: B1 VH with L101S
VL: B1 VL
notes: as for B2
B5: tilvestamab scFv-osmY G101A (scFv, V domains shown)
VH: B1 VH with G100A
VL: B1 VL
notes: as for B2
B6: tilvestamab scFv-osmY F33Y (scFv, V domains shown)
VH: B1 VH with F32Y
VL: B1 VL
notes: as for B2
B7: tilvestamab scFv-osmY N195A (scFv, V domains shown)
VH: B1 VH
VL: B1 VL with N58A
notes: as for B3
B8: tilvestamab scFv-osmY I35A (scFv, V domains shown)
VH: B1 VH with I34A
VL: B1 VL
notes: as for B2
B9: tilvestamab scFv-osmY P238A (scFv, V domains shown)
VH: B1 VH
VL: B1 VL with P101A
notes: as for B3
B10: tilvestamab scFv-osmY L102A (scFv, V domains shown)
VH: B1 VH with L101A
VL: B1 VL
notes: as for B2
B11: tilvestamab scFv-osmY T31A (scFv, V domains shown)
VH: B1 VH with T30A
VL: B1 VL
notes: as for B2
B12: tilvestamab scFv-osmY Y103S (scFv, V domains shown)
VH: B1 VH with Y102S
VL: B1 VL
notes: as for B2
B13: tilvestamab scFv-osmY D32A (scFv, V domains shown)
VH: B1 VH with D31A
VL: B1 VL
notes: as for B2
B14: tilvestamab scFv-osmY F33A (scFv, V domains shown)
VH: B1 VH with F32A
VL: B1 VL
notes: as for B2
B15: tilvestamab scFv-osmY F33T (scFv, V domains shown)
VH: B1 VH with F32T
VL: B1 VL
notes: as for B2
B16: tilvestamab scFv-osmY G233A (scFv, V domains shown)
VH: B1 VH
VL: B1 VL with G96A
notes: as for B3
B17: tilvestamab scFv-osmY F53A (scFv, V domains shown)
VH: B1 VH with F52A
VL: B1 VL
notes: as for B2
B18: tilvestamab scFv-osmY Y103A (scFv, V domains shown)
VH: B1 VH with Y102A
VL: B1 VL
notes: as for B2
B19: tilvestamab scFv-osmY G233S (scFv, V domains shown)
VH: B1 VH
VL: B1 VL with G96S
notes: as for B3
B20: tilvestamab scFv-osmY F33S (scFv, V domains shown)
VH: B1 VH with F32S
VL: B1 VL
notes: as for B2
B21: tilvestamab scFv-osmY M106A (scFv, V domains shown)
VH: B1 VH with M105A
VL: B1 VL
notes: as for B2
B22: tilvestamab scFv-osmY Y108A (scFv, V domains shown)
VH: B1 VH with Y107A
VL: B1 VL
notes: as for B2
B23: tilvestamab scFv-osmY L102T (scFv, V domains shown)
VH: B1 VH with L101T
VL: B1 VL
notes: as for B2

Target: T1, AXL Ig1 domain fused to human Fc (Homo sapiens, UniProt P30530)
T1 construct: AXL receptor tyrosine kinase, human, Ig1 domain of the extracellular domain; Construct limits and production are in the Supplementary Information; also called AXL Ig1-Fc; AXL-Ig1-Fc
Assay: BLI; Octet RED96; His-tagged scFv-osmY captured on Ni-NTA tips from undiluted bacterial supernatant (600 s); AXL Ig1 domain Fc 5.6 ug/ml in kinetic buffer (0.02% Tween 20, 0.05% sodium azide, 0.1% BSA in PBS) as analyte; rat Axl-Fc as control; traces scored by eye (normal, fast, very fast, weak, weak fast, none)
Conditions: one partner purified

Binder | binding result
B1 | binds
B2 | binds
B3 | binds
B4 | binds
B5 | binds
B6 | binds
B7 | binds
B8 | binds
B9 | binds
B10 | binds
B11 | binds
B12 | binds
B13 | binds
B14 | binds
B15 | binds
B16 | binds
B17 | binds
B18 | binds
B19 | binds
B20 | binds
B21 | binds
B22 | binds
B23 | binds
